Bridges are numbered along the chain shown (N, C = ends). Primed or numbered codes have the meaning given here. Where no end group is shown, it is not given here. [ ]: non-standard residue; d: D form. PEG4′ = non-peptide PEG4 spacer in the linking moiety; PEG8″ = non-peptide PEG8 spacer in the linking moiety

B1: MIU-67: B0, C8-PEG10K di-PEGylated B^1(H5,Y16,L17)25-C^1(K8)-A^1(N18,21) (ligand)
chain: {PEG 10 kDa}-GPEHLCGAELVDALYLVCGDRGFYGYGSSSRK(PEG 10 kDa)APQTGIVDECCFRSCDLRRLENYCN
modifications: disulfide 18-56, 42-47, 6-43
B2: MIU-68: B0, B22-PEG10K di-PEGylated B^1(H5,Y16,L17, K22)25-C^1(K8)-A^1(N18,21) (ligand)
chain: {PEG 10 kDa}-GPEHLCGAELVDALYLVCGDK(PEG 10 kDa)GFYGYGSSSRKAPQTGIVDECCFRSCDLRRLENYCN
modifications: disulfide 18-56, 42-47, 6-43
B3: MIU-35: B^1(H5, H10, Y16, L17)25-C^1-A^1 (H8, N18, N21) (ligand)
chain: GPEHLCGAHLVDALYLVCGDRGFYGYGSSSRRAPQTGIVDECCHRSCDLRRLENYCN
B4: MIU-58: B1-PEG20K-B1- Dimer, P05019 49-110 (ligand)
chain: {PEG 20 kDa}-GPEHLCGAELVDALYLVCGDRGFYGYGSSSRRAPQTGIVDECCFRSCDLRRLENYCN
modifications: disulfide 18-56, 42-47, 6-43; also: dimer: two chains linked head to head via 20 kDa PEG
B5: MIU-57: B1-PEG20K B^1(H5,Y16,L17)25-C^1-A^1(N18,21), P05019 49-110 (ligand)
chain: {PEG 20 kDa}-GPEHLCGAELVDALYLVCGDRGFYGYGSSSRRAPQTGIVDECCFRSCDLRRLENYCN
modifications: disulfide 18-56, 42-47, 6-43
B6: MIU-69: B0, A14-PEG10K di-PEGylated B^1(H5,Y16,L17)25-C^1(K8)-A^1(K14, N18,21) (ligand)
chain: {PEG 10 kDa}-GPEHLCGAELVDALYLVCGDRGFYGYGSSSRKAPQTGIVDECCFRSCDLK(PEG 10 kDa)RLENYCN
modifications: disulfide 18-56, 42-47, 6-43
B7: DP19LysC (ligand)
chain: B3 chain

In one assay the target is insulin receptor subtype A (human), P06213. Briefly: cell-based or functional assay.
Take B1: the % Insulin Activity (in vitro; assay not stated) is 0.2%.
On to B2, for which the % Insulin Activity (in vitro; assay not stated) was 0.4%.
The same measure, in the same setting: to B3 belongs 61.4%; to B4, 19.7%; to B5, 3.1%.
The same measure, in the same setting: to B6 belongs 1%; to GPEHLCGAELVDALYLVCGDRGFY[PEG8″]K(PEG 20 kDa)[PEG4′]GIVDECCFRSCDLRRLENYCN (ligand, disulfide 18-47, 33-38, 6-34) [MIU-56: C8-PEG20K B^1(H5, Y16, L17)25-PEG8-K-PEG4-A^1(N18, N21)], 14.8%.

Another assay deals with insulin receptor subtype B (human), P06213. Briefly: cell-based or functional assay.
As to B1, the % Insulin Activity (in vitro; assay not stated) stood at 0.1%.
The molecule B2 had a % Insulin Activity (in vitro; assay not stated) of 0.1%.
B3: the % Insulin Activity (in vitro; assay not stated) was found to be 17.4%.
Still for that read-out and setting: under B4 stands 5.8%; under B5, 1.1%.
Still for that read-out and setting: under B6 stands 0.5%.

The target of another assay is insulin receptor subtype A (human) (UniProt P06213). As to the kind of experiment: cell-based or functional assay.
The molecule B7 showed an EC50, Receptor Phosphorylation of 0.3 nM.

The next assay has as its target human IGF-1 receptor (human) (UniProt P08069). Briefly: cell-based or functional assay.
As for B7, the EC50, Receptor Phosphorylation turned out to be 20.7 nM.

In another assay the target is insulin receptor subtype B (human) (UniProt P06213). As to the kind of experiment: cell-based or functional assay.
Regarding B7, the EC50, Receptor Phosphorylation was 1.2 nM.

The values are drawn from patent publication US20150299285A1.
